Article PMC9333443, “Structural insights into Pot1-ssDNA, Pot1-Tpz1 and Tpz1-Ccq1 Interactions within fission yeast shelterin complex” (PLoS Genetics, 2022)
Values belong to the binder of their own block, whether it stands above or below them.

Experiments:
[1] = molecular target: T1, Pot1 full length;Tpz1PIM (Schizosaccharomyces …, UniProt O13988;O14246 1-555;164-240, |); test: complex reconstitution; stable complex after mixing with Tel18; ITC: 25 mM Tris-HCl pH 8.0, 150 mM NaCl, 20 C; gel filtration (complex purification): 25 mM Tris-HCl pH 8.0, 150 mM NaCl, 5 mM DTT; details: protein: recombinant;recombinant, tags: His6-SUMO/GST system, co-expressed with Tpz1PIM;His6-SUMO/GST system, copies: 1;1, single strand
T1 sequence 1: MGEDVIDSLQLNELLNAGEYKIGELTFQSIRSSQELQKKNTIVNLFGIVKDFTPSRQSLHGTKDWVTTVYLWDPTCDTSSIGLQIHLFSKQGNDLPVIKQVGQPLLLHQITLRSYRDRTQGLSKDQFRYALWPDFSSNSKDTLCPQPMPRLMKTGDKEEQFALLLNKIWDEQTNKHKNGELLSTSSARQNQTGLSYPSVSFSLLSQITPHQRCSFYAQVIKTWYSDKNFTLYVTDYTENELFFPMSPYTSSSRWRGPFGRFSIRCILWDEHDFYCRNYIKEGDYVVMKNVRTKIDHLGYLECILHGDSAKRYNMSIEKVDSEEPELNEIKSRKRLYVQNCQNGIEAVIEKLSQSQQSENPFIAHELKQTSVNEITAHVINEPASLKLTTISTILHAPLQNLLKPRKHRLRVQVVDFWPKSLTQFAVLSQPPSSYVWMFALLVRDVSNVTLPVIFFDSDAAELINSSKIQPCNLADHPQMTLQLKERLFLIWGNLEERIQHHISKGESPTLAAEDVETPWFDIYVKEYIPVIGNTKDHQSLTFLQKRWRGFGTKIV
T1 sequence 2: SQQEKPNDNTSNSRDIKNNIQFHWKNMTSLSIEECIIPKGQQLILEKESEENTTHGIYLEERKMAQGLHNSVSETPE

[2] = molecular target: T2, Pot1DBD (Schizosaccharomyces pombe, UniProt O13988 2-339); test: ITC; Kd only in figure; ITC: 25 mM Tris-HCl pH 8.0, 150 mM NaCl, 20 C; gel filtration (complex purification): 25 mM Tris-HCl pH 8.0, 150 mM NaCl, 5 mM DTT; details: protein: recombinant; tags: His6-SUMO (N-terminal, removed with ULP1); single strand
T2 sequence: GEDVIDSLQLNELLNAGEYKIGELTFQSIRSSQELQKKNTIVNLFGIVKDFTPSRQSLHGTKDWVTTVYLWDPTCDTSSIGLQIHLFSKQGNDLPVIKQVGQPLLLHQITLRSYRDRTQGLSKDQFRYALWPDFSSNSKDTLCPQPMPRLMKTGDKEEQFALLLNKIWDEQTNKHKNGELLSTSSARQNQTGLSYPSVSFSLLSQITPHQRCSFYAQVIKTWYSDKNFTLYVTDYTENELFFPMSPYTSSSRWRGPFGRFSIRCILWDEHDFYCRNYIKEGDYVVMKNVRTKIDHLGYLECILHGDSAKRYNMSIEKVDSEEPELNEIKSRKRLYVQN

[3] = molecular target: T3, Ccq1TAD (Ccq1 123-439 with deletion of residues 199-215), purified (S. pombe, UniProt Q10432 123-439, deletion of residues 199–215); test: crystal structure; Tpz1CBM-Ccq1TAD complex, SAD, 2.4 Å; sitting drop at 4°C, 15% PEG4000, 200 mM potassium chloride, 50 mM magnesium chloride, 50 mM Tris-HCl pH 7.8; details: both partners purified
T3 construct: Two copies stand in the 2:2 complex with Tpz1CBM; not shown: His6, N-terminal, cleaved; SUMO, N-terminal, cleaved
T3 sequence (looked up): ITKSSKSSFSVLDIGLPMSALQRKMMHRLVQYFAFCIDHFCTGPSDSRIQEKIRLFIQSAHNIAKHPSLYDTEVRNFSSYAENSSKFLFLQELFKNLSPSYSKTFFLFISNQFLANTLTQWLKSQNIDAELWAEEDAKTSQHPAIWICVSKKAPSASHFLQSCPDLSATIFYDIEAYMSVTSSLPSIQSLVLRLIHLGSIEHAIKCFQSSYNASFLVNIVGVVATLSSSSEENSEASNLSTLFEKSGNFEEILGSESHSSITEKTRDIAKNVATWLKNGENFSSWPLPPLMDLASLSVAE

[4] = molecular target: T4, Ccq1 (residues 123-439), without the deletion (S. pombe, UniProt Q10432 123-439); test: SEC; co-expressed and co-purified complexes on gel filtration (calibrated for Tpz1CBM-Ccq1TAD); 25 mM Tris-HCl pH 8.0, 150 mM NaCl, 5 mM dithiothreitol; details: both partners purified
T4 construct: The methods describe only the deleted form; this undeleted form gave crystals that diffracted to about 4.0 Å; also called N-terminal region of Ccq1
T4 sequence (looked up): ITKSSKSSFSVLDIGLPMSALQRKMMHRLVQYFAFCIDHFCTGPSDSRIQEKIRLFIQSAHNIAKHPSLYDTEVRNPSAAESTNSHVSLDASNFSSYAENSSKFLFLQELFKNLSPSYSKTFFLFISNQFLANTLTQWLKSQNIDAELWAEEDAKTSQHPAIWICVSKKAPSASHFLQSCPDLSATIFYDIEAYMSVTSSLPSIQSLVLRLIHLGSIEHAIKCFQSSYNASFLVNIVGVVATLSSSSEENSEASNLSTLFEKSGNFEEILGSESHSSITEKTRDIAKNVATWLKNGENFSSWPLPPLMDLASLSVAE

[5] = molecular target: T2, Pot1DBD; test: gel filtration; 1:1 stoichiometry; ITC: 25 mM Tris-HCl pH 8.0, 150 mM NaCl, 20 C; gel filtration (complex purification): 25 mM Tris-HCl pH 8.0, 150 mM NaCl, 5 mM DTT; details: protein: recombinant; tags: His6-SUMO (N-terminal, removed with ULP1); single strand

B1: Tel18 (ssDNA)
DNA: GGTTACAGGGGTTACGGT
binding result [1]: binds | binding result [2]: binds

stoichiometry N [3]: 1 Tpz1CBM per Ccq1TAD (printed as 2:2) | binding result [4]: binds
B2: Tpz1CBM (Tpz1 425-470), purified (domain or fragment, S. pombe, UniProt O14246 425-470, looked up)
chain: EQIELEYKRKPIPDYDFMKGLETTLQELYVEHQSKKRRLELFQLTN
notes: not shown: GST, N-terminal, cleaved

B3: Tel17 (ssDNA)
DNA: GGTTACAGGGTTACGGT
binding result [5]: binds

B4: Tel15 (ssDNA)
DNA: GGTTACGGTTACGGT
binding result [2]: binds
